# Assay results: the supplement of paper PMC10567573
# B1: TOR1AIP2 (parent)
# chain: YTSSQKVSPIQIDGAGRTWQDSDT
# Variants of: B1
# Assay: protein stability index of a GFP-peptide fusion (GPS, HEK-293T) (PSI 1-6); higher = more stable
# Details: c terminus: a fixed tail appended
# 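Also: lentivirally expressed fusions sorted by FACS into six bins by GFP to DsRed ratio, PSI derived from sequencing read proportions per bin multiplied by bin number.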
row,Variant,protein stability index
1,YTSSQKVSPIQIDGAGKTWQDSDT,3.54
2,YTSSQKVSPIQIDGAGTTWQDSDT,3.6
3,YTSSQKVSPIQIDGAGDTWQDSDT,4.16
4,YTSSQKVSPIQIDGAGMTWQDSDT,2.18
5,YTSSQKVSPIQIDGAGETWQDSDT,4.4
6,YTSSQKVSPIQIDGAGWTWQDSDT,2.32
7,YTSSQKVSPIQIDGAGSTWQDSDT,3.96
8,YTSSQKVSPIQIDGAGATWQDSDT,3.66
9,YTSSQKVSPIQIDGAGNTWQDSDT,3.02
10,YTSSQKVSPIQIDGAGQTWQDSDT,3.79
11,YTSSQKVSPIQIDGAGPTWQDSDT,4.25
12,YTSSQKVSPIQIDGAGITWQDSDT,3.59
13,YTSSQKVSPIQIDGAGVTWQDSDT,3.64
14,YTSSQKVSPIQIDGAGFTWQDSDT,2.33
15,YTSSQKVSPIQIDGAGGTWQDSDT,3.63
16,YTSSQKVSPIQIDGAGCTWQDSDT,3.66
17,YTSSQKVSPIQIDGAGYTWQDSDT,3.02
18,YTSSQKVSPIQIDGAGHTWQDSDT,2.24
19,YTSSQKVSPIQIDGAGLTWQDSDT,3.21
20,YTSSQKVSPIQIDGAGRTEQDSDT,4.86
21,YTSSQKVSPIQIDGAGRTAQDSDT,3.93
22,YTSSQKVSPIQIDGAGRTCQDSDT,3.88
23,YTSSQKVSPIQIDGAGRTDQDSDT,4.39
24,YTSSQKVSPIQIDGALRTWQDSDT,3.07

row,Variant,protein stability index
1,YTSSQKVSPIQIDGAERTWQDSDT,3.32
2,YTSSQKVSPIQIDGADRTWQDSDT,4.01
3,YTSSQKVSPIQIDGATRTWQDSDT,2.7
4,YTSSQKVSPIQIDGAHRTWQDSDT,3.41
5,YTSSQKVSPIQIDGAARTWQDSDT,3.07
6,YTSSQKVSPIQIDGAPRTWQDSDT,3.24
7,YTSSQKVSPIQIDGAQRTWQDSDT,2.97
8,YTSSQKVSPIQIDGAMRTWQDSDT,3.65
9,YTSSQKVSPIQIDGAFRTWQDSDT,2.3
10,YTSSQKVSPIQIDGASRTWQDSDT,2.9
11,YTSSQKVSPIQIDGAYRTWQDSDT,2.89
12,YTSSQKVSPIQIDGACRTWQDSDT,2.99
13,YTSSQKVSPIQIDGANRTWQDSDT,1.93
14,YTSSQKVSPIQIDGAVRTWQDSDT,3
15,YTSSQKVSPIQIDGAKRTWQDSDT,3.33
16,YTSSQKVSPIQIDGAIRTWQDSDT,2.54
17,YTSSQKVSPIQIDGARRTWQDSDT,3.19
18,YTSSQKVSPIQIDGAWRTWQDSDT,1.61
19,YTSSQKVSPIQIDDAGRTWQDSDT,3.46
20,YTSSQKVSPIQIDEAGRTWQDSDT,3.94
21,YTSSQKVSPIQIDVAGRTWQDSDT,2.78
22,YTSSQKVSPIQIDYAGRTWQDSDT,2.78
23,YTSSQKVSPIQIDMAGRTWQDSDT,2.77
24,YTSSQKVSPIQIDRAGRTWQDSDT,1.95

row,Variant,protein stability index
1,YTSSQKVSPIQIDFAGRTWQDSDT,2.83
2,YTSSQKVSPIQIDWAGRTWQDSDT,3.16
3,YTSSQKVSPIQIDLAGRTWQDSDT,2.99
4,YTSSQKVSPIQIDSAGRTWQDSDT,3.51
5,YTSSQKVSPIQIDIAGRTWQDSDT,2.5
6,YTSSQKVSPIQIDTAGRTWQDSDT,3.38
7,YTSSQKVSPIQIDPAGRTWQDSDT,3.28
8,YTSSQKVSPIQIDNAGRTWQDSDT,3.5
9,YTSSQKVSPIQIDQAGRTWQDSDT,3.57
10,YTSSQKVSPIQIDHAGRTWQDSDT,3
11,YTSSQKVSPIQIDGCGRTWQDSDT,3.03
12,YTSSQKVSPIQIDGGGRTWQDSDT,3.04
13,YTSSQKVSPIQIDGYGRTWQDSDT,2.91
14,YTSSQKVSPIQIDGTGRTWQDSDT,3.36
15,YTSSQKVSPIQIDGVGRTWQDSDT,2.82
16,YTSSQKVSPIQIDGSGRTWQDSDT,2.95
17,YTSSQKVSPIQIDGIGRTWQDSDT,3.25
18,YTSSQKVSPIQIDGRGRTWQDSDT,2.56
19,YTSSQKVSPIQIDGFGRTWQDSDT,2.45
20,YTSSQKVSPIQIDGLGRTWQDSDT,2.93
21,YTSSQKVSPIQIDGDGRTWQDSDT,3.85
22,YTSSQKVSPIQIDGWGRTWQDSDT,1.67
23,YTSSQKVSPIQIDGHGRTWQDSDT,2.6
24,YTSSQKVSPIQIDGEGRTWQDSDT,3.52

row,Variant,protein stability index
1,YTSSQKVSPIQIDGKGRTWQDSDT,2.73
2,YTSSQKVSPIQIDGNGRTWQDSDT,3.71
3,YTSSQKVSPIQIDGPGRTWQDSDT,2.99
4,YTSSQKVSPIQIDGQGRTWQDSDT,3.35
5,YTSSQKVSPIQIDGAGRDWQDSDT,4.01
6,YTSSQKVSPIQIDGAGRYWQDSDT,2.74
7,YTSSQKVSPIQIDGAGRMWQDSDT,2.42
8,YTSSQKVSPIQIDGAGRNWQDSDT,3.41
9,YTSSQKVSPIQIDGAGRCWQDSDT,2.9
10,YTSSQKVSPIQIDGAGRRWQDSDT,3.43
11,YTSSQKVSPIQIDGAGRIWQDSDT,2.63
12,YTSSQKVSPIQIDGAGRVWQDSDT,3.29
13,YTSSQKVSPIQIDGAGRAWQDSDT,3.01
14,YTSSQKVSPIQIDGAGRSWQDSDT,2.87
15,YTSSQKVSPIQIDGAGRWWQDSDT,2.3
16,YTSSQKVSPIQIDGAGREWQDSDT,3.83
17,YTSSQKVSPIQIDGAGRLWQDSDT,3
18,YTSSQKVSPIQIDGAGRPWQDSDT,3.38
19,YTSSQKVSPIQIDGAGRQWQDSDT,3.8
20,YTSSQKVSPIQIDGAGRKWQDSDT,3.33
21,YTSSQKVSPIQIDGAGRGWQDSDT,3.47
22,YTSSQKVSPIQIDGAGRFWQDSDT,1.33
